± gives the standard deviation.
Assay: protein stability index of a GFP-peptide fusion (GPS, HEK-293T) (PSI 1-6); higher = more stable
[1] = treatment: DMSO, c terminus: a fixed tail appended
[2] = treatment: MLN4924 1 uM, 8 h, c terminus: a fixed tail appended
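Further: 24-mer peptide tiles fused after GFP, lentivirally expressed, FACS-sorted into six equal bins by GFP/DsRed ratio, decoded by Illumina sequencing, PSI is the read-weighted mean bin number.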

| Sequence | protein stability index [1] | protein stability index [2] | protein stability index (treatment: DMSO, c terminus: native) | protein stability index (treatment: MLN4924 1 uM, 8 h, c terminus: native) |
| --- | --- | --- | --- | --- |
| PTHPSSTHALAEWASRREAFAQRP [CDC25B] | 4 ± 0.26 | 3.91 ± 0.3 | – | – |
| DFPDILEQQRKLETYLQNHFAEEE [TENT5C] | 4.45 ± 0.27 | 4.56 ± 0.22 | – | – |
| DSSEKELEPEAAEEALENGPKESL [ACBD3] | 5.62 ± 0.24 | 5.55 ± 0.22 | – | – |
| SREWSGKEKWWDGQRDRKAEHWKH [PBXIP1] | 3.69 ± 0.27 | 3.91 ± 0.064 | – | – |
| LPPDALIIEYRGKFMLREQFEANG [KMT2E] | 2.57 ± 0.31 | 2.63 ± 0.18 | – | – |
| MGGIMAPKDIMTNTHAKSILNSMN [KLHL12] | 2.83 ± 0.092 | 3.27 ± 0.47 | – | – |
| GGRGVSTCSTRFVSGGSAGGYGGG [KRT13] | 3.77 ± 0.41 | 3.97 ± 0.15 | – | – |
| VLMVGPNFRVGKKIGCGNFGELRL [CSNK1G1] | 2.42 ± 0.053 | 2.69 ± 0.61 | – | – |
| LEELIDMAVLEEIQQELIKQEQSI [RPAIN] | 3.34 ± 0.31 | 3.44 ± 0.3 | – | – |
| RRENYGVPPRRATISSWRNDRMST [RBMY1A1] | 3.31 ± 0.28 | 3.43 ± 0.068 | – | – |
| ALIPYVLNPSKLMEKEINGSKVTC [ATL3] | 2.13 ± 0.2 | 2.2 ± 0.39 | – | – |
| LREIRMLKQLKHPNLVNLIEVFRR [CDKL4] | 2.31 ± 0.3 | 2.13 ± 0.67 | – | – |
| GVNPDQVEKIRKLPNTLLRKDKDV [ANKRD40] | 4.63 ± 0.35 | 4.73 ± 0.26 | – | – |
| EFFRESVNRFGTYPALASKNGKKW [ACSBG2] | 2.87 ± 0.45 | 3.2 ± 0.28 | – | – |
| TAKRINRTSLSSGATVRSFSINSR [CDC14A] | 3.26 ± 0.41 | 3.6 ± 0.12 | – | – |
| HNNNNNCEENEQSLPPPAGLNSSW [BNIP3L] | 4.96 ± 0.17 | 5.09 ± 0.078 | – | – |
| IGIPLFFLELAVGQRIRRGSIGVW [SLC6A17] | 2.51 ± 0.34 | 2.28 ± 0.23 | – | – |
| SYKARLPLRLFLIIANTMAFQNDV [SCD] | 2.66 ± 0.53 | 2.5 ± 0.2 | – | – |
| LMELDMAMEPDRKAAVSHWQQQSY [CTNNB1] | 3.11 ± 0.19 | 3.33 ± 0.37 | – | – |
| TMGMGMPNIAMTSGTVQPKQDAFA [CLINT1] | 3.9 ± 0.17 | 3.98 ± 0.21 | – | – |
| IFCRDTQTVFQKKNLQQTTNTTST [IQUB] | 3.32 ± 0.34 | 3.66 ± 0.26 | – | – |
| PTPDDHVFRWLAYSYASTHRLMTD [CPXM2] | 2.64 ± 0.49 | 2.62 ± 0.59 | – | – |
| KLNCDPSRIYKPQTRLKRKQPVRK [DFFB] | 3.36 ± 0.56 | 3.71 ± 0.63 | – | – |

| Sequence | protein stability index [1] | protein stability index [2] | protein stability index (treatment: DMSO, c terminus: native) | protein stability index (treatment: MLN4924 1 uM, 8 h, c terminus: native) |
| --- | --- | --- | --- | --- |
| LGVIQRDLAKTGCVDLTITNLLEG [AUP1] | 2.52 ± 0.18 | 2.61 ± 0.46 | – | – |
| HPRALPPDARPHRRPHELLPVGGR [HAGHL] | 4.48 ± 0.12 | 4.33 ± 0.23 | – | – |
| TPIQLQELLALETALGGQCVDRQE [TCAP] | 4.52 ± 0.11 | 4.47 ± 0.26 | – | – |
| LHIFQLNEDGPSSENLEEETENII [TRIP13] | 3.96 ± 0.58 | 4.21 ± 0.28 | – | – |
| EVHVPPSSAVSGVKEWFGLGGEQA [MIA2] | 4.31 ± 0.22 | 4.29 ± 0.44 | – | – |
| RCRLSLDDRVLSSLVRDTIARVHG [POP5] | 2.29 ± 0.25 | 2.35 ± 0.27 | – | – |
| SKDWEEVVVESMEQDRIPEVHVPP [MIA2] | 5.09 ± 0.25 | 4.87 ± 0.26 | – | – |
| KAMLQLHERGLKLHQTIYNQACKL [INTS4] | 2.23 ± 0.44 | 2.21 ± 0.26 | – | – |
| ASFHHKLHHKRLAKECMLQEENKS [CBY2] | 4.1 ± 0.26 | 4.27 ± 0.2 | – | – |
| TMIQQQNMQQPMNVMTQSFGAVNL [CLINT1] | 2.69 ± 0.39 | 2.94 ± 0.39 | – | – |
| GTATRQNNWPPLPSFCPVQPCFFQ [SCAMP3] | 2.42 ± 0.16 | 2.45 ± 0.19 | – | – |
| NAYKDLAWKHGNIHLSAPCIYSEV [PCMTD1] | 2.31 ± 0.17 | 2.15 ± 0.31 | – | – |
| SDGWWRGSYNGQIGWFPSNYVLEE [NCK2] | 2.89 ± 0.35 | 2.73 ± 0.12 | – | – |
| RIIPNFYPPLEGHVRQGVFSSLNH [INTS3] | 2.28 ± 0.025 | 2.3 ± 0.16 | – | – |
| SNCISGVCSVRGGEGRSRGSANDY [KRT71] | 3.93 ± 0.36 | 4.23 ± 0.084 | – | – |
| ILISFTCRFLLNSRVTDAAFNFLL [TMEM120A] | 2.9 ± 0.38 | 3.25 ± 0.23 | – | – |
| SPVTENSTSLSFLDSCNSLTPKST [MYBL2] | 4.91 ± 0.15 | 4.77 ± 0.14 | – | – |
| ELFIEISRRIPSTDANLPSGGKGF [RAB22A] | 2.36 ± 0.33 | 2.14 ± 0.34 | – | – |
| CETCVGSWSIQMRQHHHQSSFPGS | 2.37 ± 0.3 | 2.34 ± 0.44 | – | – |
| GKDQGINIRQKVKELVEFAQDDDR [CLINT1] | 5.15 ± 0.42 | 4.91 ± 0.28 | – | – |
| NDMRDTPLHRAAFTGRKICSQGS [OSBPL1A] | – | – | 2.87 ± 0.22 | 2.73 ± 0.39 |
| YTSPDKLKDIFMFITRQLKGLEDT [PDS5B] | 3.62 ± 0.19 | 3.84 ± 0.3 | – | – |
| KLPLPIALRSHLKSFSMANGLNAR [RAB40B] | 2.41 ± 0.23 | 2.46 ± 0.19 | – | – |

| Sequence | protein stability index [1] | protein stability index [2] | protein stability index (treatment: DMSO, c terminus: native) | protein stability index (treatment: MLN4924 1 uM, 8 h, c terminus: native) |
| --- | --- | --- | --- | --- |
| LEQFVTRFLLKETLNQLQSLQNSL [NECAB1] | 2.87 ± 1.3 | 2.76 ± 0.27 | – | – |
| CGLLPISPEALSLGEVAYHDYHGI [ADD1] | 2.18 ± 0.24 | 2.35 ± 0.41 | – | – |
| SKDLYLISQMDSDQFIPIWTVANM [LARP4] | 2.51 ± 0.6 | 1.92 ± 0.36 | – | – |
| DQNASTHTPQSSVKTSVPSSKSSG [CLINT1] | 5.02 ± 0.24 | 5.2 ± 0.14 | – | – |
| DEDLDLIPPKSVNPTCMCCQATSS [FAM219A] | 4.63 ± 0.33 | 4.53 ± 0.63 | – | – |
| DVFERDWYSPYAKTLQPTKQPNCS [PLD5] | 3.49 ± 0.54 | 3.24 ± 0.15 | – | – |
| EVWGNALLRPPVAAFVRAQADLLA [DNAAF3] | 2.39 ± 0.31 | 2.02 ± 0.37 | – | – |
| PVANSGTKPKTTAIQGISEKEKAE [DLC1] | 5.51 ± 0.28 | 5.68 ± 0.28 | – | – |
| AQEVRPRRWKLQVLDLRKNSHQDF [PRAME] | 2.64 ± 0.37 | 2.96 ± 0.31 | – | – |
| SKEKDTQNQNITLDCEGTTNKMKS [KMT2E] | 5.29 ± 0.058 | 5.28 ± 0.45 | – | – |
| EEDDDDDDDDNLPQLKKESELPFV [ANKRD40] | 5.32 ± 0.1 | 5.42 ± 0.18 | – | – |
| GLNDALDNLRKVVPCYSKTQKLSK [NEUROD6] | 3.25 ± 0.15 | 3.42 ± 0.18 | – | – |
| RPGQAPIGNPPVGPIGGMMPPQPG [ZNF207] | 4.14 ± 0.22 | 4.28 ± 0.38 | – | – |
| KRQVTHFQFLSWPDYGVPSSAASL [PTPN9] | 2.21 ± 0.35 | 2.38 ± 0.18 | – | – |
| IKGKEGSALTEGAKEEGGEEVAKA [EPB41L3] | 5.81 ± 0.17 | 5.86 ± 0.12 | – | – |
| YDGMLSDVQSMPKTGILILILSII [MAGEA10] | 2.36 ± 0.78 | 2.12 ± 0.48 | – | – |
| KTRTVFSSTQLCVLNDRFQRQKYL [NANOGP8] | 2.5 ± 0.12 | 2.67 ± 0.29 | – | – |
| DMLREMFSDSRSNNDDDEDEDDED [TAF7L] | 5.36 ± 0.36 | 5.63 ± 0.17 | – | – |
| SLCYLQLTRQLVSCSSDGGIAVWN [WDFY1] | 2.87 ± 0.57 | 2.81 ± 0.46 | – | – |
| AAAIIVYDITKEETFSTLKNWVKE [RAB22A] | 2.67 ± 1.1 | 1.95 ± 0.86 | – | – |
| TVAGKHQDLKYISPEIMASVLNGK [CDC25A] | 3.17 ± 0.2 | 3.3 ± 0.32 | – | – |
| SDSLLTGMAFFKMREMFFEDHIDD [CNOT7] | 2.58 ± 0.054 | 3.3 ± 0.48 | – | – |
| GAQGSGGGSTSAHYAVNSQFTMGG [CARM1] | 3.92 ± 0.34 | 4.23 ± 0.2 | – | – |

| Sequence | protein stability index [1] | protein stability index [2] | protein stability index (treatment: DMSO, c terminus: native) | protein stability index (treatment: MLN4924 1 uM, 8 h, c terminus: native) |
| --- | --- | --- | --- | --- |
| HSKLTDREKTNICYLSFPDSNSGC [DENND6A] | 3.32 ± 0.26 | 3.39 ± 0.3 | – | – |
| PGRGVYLLKFDNSYSLWRSKSVYY [ACBD3] | 2.78 ± 0.52 | 2.69 ± 0.76 | – | – |
| VCQEVLERSRDVVDEVSVSLRLWD [RHOBTB1] | 3.1 ± 0.48 | 3.36 ± 0.46 | – | – |
| LSSWELEAWYEDLQEVLSSDENGG [DDIT3] | 3.19 ± 0.39 | 3.29 ± 0.34 | – | – |
| PDKECRRCMQCDAKFDFLTRKHHC [ZFYVE21] | 3.91 ± 0.078 | 4 ± 0.27 | – | – |
| ISFHFEVTNHNIRLFEDVRSWMFR [TRIM43] | 2.7 ± 0.96 | 3.24 ± 0.28 | – | – |
| LEVNRLMGKLLQQPNTYADFEFLA [PKD2L1] | 2.17 ± 0.37 | 2.48 ± 0.14 | – | – |
| IHDALLEAVTCGNTEVPARNLYAY [PTPRD] | 2.29 ± 0.35 | 2.39 ± 0.14 | – | – |
| AEKKQELDKLRNEWASHTAALTNK [SASS6] | 4.38 ± 0.26 | 4.79 ± 0.25 | – | – |
| RALLRRFPRMLLVDRLPGLQGALD [ZSWIM9] | 2.49 ± 0.25 | 2.52 ± 0.24 | – | – |
| TQIEDATEKLKANAESSKTWLKGK [TRIM14] | 4.95 ± 0.37 | 5 ± 0.18 | – | – |
| VNSTLKELRRLFLVQDLVDSLKFA [RTN1] | 2.44 ± 0.27 | 2.4 ± 0.23 | – | – |
| QLSRELSTLRNLFKQLPEPLLASS [CEBPB] | 2.28 ± 0.1 | 2.37 ± 0.29 | – | – |
| QEVPHEGPMCDLLWSDPDDRGGWG [PPP2CA] | 4.39 ± 0.32 | 4.61 ± 0.2 | – | – |
| FSLVLVLDLSKPNDLWPTMENLLQ [DYNC2LI1] | 2.67 ± 0.51 | 2.72 ± 0.41 | – | – |
| PGPQDPEESASRQRFGEALQDQEK [ELOA2] | 5.53 ± 0.29 | 5.68 ± 0.16 | – | – |
| INLATMNSCINPIALYFVSKKFKN [EDNRA] | 2.83 ± 1.4 | 2.01 ± 0.13 | – | – |
| FPYFRSDRDKRDFVSAGAAAGVAA [CLCN6] | 3.63 ± 0.45 | 3.82 ± 0.23 | – | – |
| LTRRLAHGEELRVSARSREGRGGR [HAGHL] | 4.87 ± 0.22 | 4.99 ± 0.079 | – | – |
| SQSFSLYVKYQVAIHQDPPDECGK [ATE1] | 2.75 ± 0.37 | 2.5 ± 0.35 | – | – |
